Laboratory results from a protein production outcome set (Wang et al. 2014).

Assay: label from the status in PepcDB records
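Also: failed if final PepcDB status was selected cloned or expressed and not failed if soluble or beyond.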

| Sequence | protein production |
| --- | --- |
| MYSLFQEGRKMKNTAFLITKNHYPKDYRLKKSPDSDSAMGVAKRILAEVMIFRRVPETISLCGTGCQKCASPHLPKIISAVNKNEPVTFILPAFPGKSPNPEKVLGHLPDHAERLSLNFLGTLCQRIKNFYTPGIKIILCSDGRVFSDVVGMNESDVTAYQLELDRLIKEMSLADLSTFNLDYFYKDLHFVQMREELMKSYGQSLDFLKQKIRNGAKPSASPDEQEANRMYSGITRFLFEDAMHAGQTKSRTAIQKESRFKAYEVIRRSNAWSALIAERFPKAVRLSIHPQTCGSKKLGIRLIGNESWMTPWHGVAVESNKGYVLLRRSEAEALGAKLICSSDGRHSHYQLMAEVSYELLEHHHHHH | not failed |
| MSLDFWLYKQAQQNGHHIAITDGQESYTYQNLYCEASLLAKRLKAYQQSRVGLYIDNSIQSIILIHACWLANIEIAMINTRLTPNEMTNQMRSIDVQLIFCTLPLELRGFQIVSLDDIEFAGRDITTNGLLDNTMGIQYDTSNETVVPKESPSNILNTSFNLDDIASIMFTSGTTGPQKAVPQTFRNHYASAIGCKESLGFDRDTNWLSVLPIYHISGLSVLLRAVIEGFTVRIVDKFNAEQILTMIKNERITHISLVPQTLNWLMQQGLHEPYNLQKILLGGAKLSATMIETALQYNLPIYNSFGMTETCSQFLTATPEMLHARPDTVGMPSANVDVKIKNPNKEGHGELMIKGANVMNGYLYPTDLTGTFENGYFNTGDIAEIDHEGYVMIYDRRKDLIISGGENIYPYQIETVAKQFPGISDAVCVGHPDDTWGQVPKLYFVSESDISKAQLIAYLSKHLAKYKVPKHFEKVDTLPYTSTGKLQRNKLYREGHHHHHH | not failed |
| MRVMRICLVGLGAVGQGFLRAVQMKGEYLRERYGLDIRFTGVADSSGALHDPDGLDIRGVLEHKKRAGLGSHPSGYEGMTGDELLDEAEYDCLVEATPTNIEDGEPGRSLVLKAMGDGKHVVTSNKGHLALFYSELMEAASEAGVEFMFEASVGGAMPIINLARETLASCTIESVIGILNGTTNFILSRMASEGSSYRQALIEAQELGIAETNPAQDVEGTDAACKAVIIANSILGRPCTLRDVRVEGITGITQGAIELAAQEGYLIKLIAEISGDRLEVGPRLVRMGSPYAVDGTLNMATLRTDLAGEVTAVGRGAGSLETASAMLTDTITIWRKSGGR | failed |
| MEYEHITHSFEPVYDENSRILILGTLPSVASRENNFYYGHKQNRFWKLLAYLLDEPVPETIDEKKYMLFKNHIAIWDVIQSCDIKGSSDSSIKNVEPTDIRKILETADIKQVYANGNKAGALYKKYQLPLTGMEAVTLPSTSPANAAWSFERLCEAWTRILANL | failed |
| MIGKPRGRRGVNLQILPSAMTVLSICAGLTAIKFALEHQPKAAMALIAAAAILDGLDGRVARILDAQSRMGAEIDSLADAVNFGVTPALVLYVSMLSKWPVGWVVVLLYAVCVVLRLARYNALQDDGTQPAYAHEFFVGMPAPAGAVSMIGLLALKMQFGEGWWTSGWFLSFWVTGTSILLVSGIPMKKMHAVSVPPNYAAALLAVLAICAAAAVLAPYLLIWVIIIAYMCHIPFAVRSQRWLAQHPEVWDDKPKQRRAVRRASRRAHPYRPSMARLGLRKPGRRL | failed |
| MIRFIGNNRRNLITALILYLLTLVPIYVFLFSNGYLNFYGPNLPLFSGKEVEHLLAASIYNPEYGFSVNDGIYFLYLLIFTSLGIYNIIILYKIFLIITFSITFLLLYTMINKAINIFKISRYKSLSLIIGVLFFLLNPLYLEYVAFNFYNLIWGVIIFSYILIKLIDIVVNDKNVTKLDILKSGIALGFSGLMDPRLYIWGSYILILTFIIVIIIKPRLILKLIKYLSLTYISSLPIIAYIYYLFVYPSLITQASTINAITVPAYRPDTYSYIATWSENSLLFNVFAFINSEWTSIVYAPPSILFYPRTQWWFFPHFGNNSLILLPPGIITYIWLASLYIFFIVAALALFDRKRTLASSLLFIPMLLIISLSAGTNVPIKEFVYLLEIDPSKLPIVGGIFATTFAIPYYAEVMALPFASYLSILGTNYLLNRINKEILKKIAVSIIIVLAVFASWQYFNGTLYPSEVTGSFPGNSISLEGYYYPLNPPPQWVHVMNLLSTSRESVRNVKN | failed |
| MRPDLSRVPGVLGEIARKRASEVAPYPLPEPPSVPSFKEALLRPGLSVIAEVKRQSPSEGLIREVDPVEAALAYARGGARAVSVLTEPHRFGGSLLDLKRVREAVDLPLLRKDFVVDPFMLEEARAFGASAALLIVALLGELTGAYLEEARRLGLEALVEVHTERELEIALEAGAEVLGINNRDLATLHINLETAPRLGRLARKRGFGGVLVAESGYSRKEELKALEGLFDAVLIGTSLMRAPDLEAALRELVG | not failed |
| MRPLARLRGRRVVPQRSAGELDAMAAAGAVVAAALRAIRAAAAPGTSSLSLDEIAESVIRESGATPSFLGYHGYPASICASINDRVVHGIPSTAEVLAPGDLVSIDCGAVLDGWHGDAAITFGVGALSDADEALSEATRESLQAGIAAMVVGNRLTDVAHAIETGTRAAELRYGRSFGIVAGYGGHGIGRQMHMDPFLPNEGAPGRGPLLAAGSVLAIEPMLTLGTTKTVVLDDKWTVTTADGSRAAHWEHTVAVTDDGPRILTLG | failed |
| MKKKKAHAAGAGPKLSVTNPPRTFFEDTLALFNSRRFDLLDQKINEAVNKWPNHAVVWKAIGVIMLMEGRFKEAIEPLTTAANLAQGDAQLHHNLGVAYLRLEQYEKAVPWLQRATSLKPDYAQAFANLGIAQAEIGLLQAAESNYRTALKINKDFPEALNNLGNVLNDQKRYGEAEECFRRALVLKPDFAEALNNLGTSLKGLNRLEEAETTYRKSLSLMPDYTRAHIGLGHTLFKLRQPDKAAASFRRAIELSPYELEAHDGLSMTLGDTVPLWHLPMMNDKPRNDAYFNALQAAVTPETRVLEIGTGSGLLSMMSARLGARHVTTCEVVTAIAETAASIVKDNGFADQVTVIPKLSTTLEVGVDLEERADLLVSEILSSEFLGEGVLSSIEDAKRRLLKPGARIIPARGSVRIALFGGRDIEMNVRVDEVYGFDLSRFNDIVPPKQYVGRNDLNIELLSDGIGAIHFDFMGTDHFPTSRSYGIDVPITRAGRCCGVIQWIRLEMDDTFVFENHPAERNVASGWQHCVYLFKTPVDVQPGQVAQIIASHDIRTCWFFLKKIVTP | failed |
| MWNLETDRVIKEIEKSNGKNIVFHAPEGLKLAVEKEIEKINDYFNSTKNLIMWGAPCYGACDLCDHELKYNNIDLIIHYGHEELPYAKPDIPTIFIHCYYIYDEIEQNNILNKIDEYLQNNPNTIITTTIQFKELLKKYNPNIILGCRANISNKPKSELEQGTEKETENSKILYIGTGRFHPLMLCYKFKKSVNLFNPTSKEFSAISEEEVNKFIKKRIGAISKLLINPPKKIGVVLSTKKGQNRINVYNKIINLLKDNNIEYMPIILNNASPDNLFYDVSAYIICACPRIVLDDYLNYNKTLLTPKEFEMYIKKDFEYVFDEILFDDFEP | failed |
| MEQGMSKRILVPVAHGSEEMETVIIVDTLVRAGFQVTMAAVGDKLQVQGSRGVWLTAEQTLEACSAEAFDALALPGGVGGAQAFADSTALLALIDAFSQQGKLVAAICATPALVFAKQQKFVGARMTCHPNFFDHIPSERLSRQRVCYYATQHLLTSQGPGTALEFALAMIALLAGVELAQHVAAPMVLHPQQLTELSGFIDAQS | not failed |
| MSQFFYIHPDNPQQRLINQAVEIVRKGGVIVYPTDSGYALGCKIEDKNAMERICRIRQLPDGHNFTLMCRDLSELSTYSFVDNVAFRLMKNNTPGNYTFILKGTKEVPRRLLQEKRKTIGMRVPSNPIAQALLEALGEPMLSTSLMLPGSEFTESDPEEIKDRLEKQVDLIIHGGYLGQKPTTVIDLTDDTPVVVREGVGDVKPFL | not failed |
| MTVRVCKMDGEVMPVVVVQNATVLDLKKAIQRYVQLKQEREGGVQHISWSYVWRTYHLTSAGEKLTEDRKKLRDYGIRNRDEVSFIKKLGQK | not failed |
| MSLSNGELAILVFGYPETMANQVIAYFQEFGTILEDFEVLRKPQAMTVGLQDRQFVPIFSGNSWTKITYDNPASAVDALLENGAVFNGVLLGVIPYTKDAVERLQKRKLTSSEDIGSGITTAAAEGHHHHHH | not failed |
| MEGYSRNGEISPKLLDLMIPQERRNWFHDEKNSVFKTEEKKLELKLGPPGEEDDDESMIRHMKKEPKDKSILSLAGKYFSPSSTKTTSHKRTAPGPVVGWPPVRSFRKNLASGSSSKLGNDSTTSNGVTLKNQKCDAAAKTTEPKRQGGMFVKINMYGVPIGRKVDLSAHNSYEQLSFTVDKLFRGLLAAQRDFPSSIEDEKPITGLLDGNGEYTLTYEDNEGDKMLVGDVPWQMFVSSVKRLRVIKTSEISSALTYGNGKQEKMRR | failed |
| SVDDDLYFIPKKKAEKKEEVKQEVKVVVPQKQNTTTVYAAPGSTVVVKDVKGKVRDVDEYNRRYTSRDNNFSMENDTLYIEEKPLNERGEWVNGFEGSQDDYEYAMRIVRFRNPRYAIPVSSPLYWDVVYGLPSWDWNVYDDGLYAYVFPTYTNRLWWDWRWNYPYGASWGFSWGWSSPWYYNSWYYPGYWGGGYWGGYWGYHHHHHHHYYPHYSGHGWGGGYWGGGHGWYGSSRRNPGIHAGRYTNSYGSSRPSRNNYVNSYDRNSRNSYVGNSRQNVRNSANSYRTATRNGSSSGRVVSGSDGVNSVRPNRSAIRTRTGATLSPSQAAGVRPGNSYSRPTEGRGSSYTRPSS | failed |
| MKEKVVLAYSGGLDTSVILKWLCEKGFDVIAYVANVGQKDDFVAIKEKALKTGASKVYVEDLRREFVTDYIFTALLGNAMYEGRYLLGTAIARPLIAKRQVEIAEKEGAQYVAHGATGKGNDQVRFELTYAALNPNLKVISPWKDPEFLAKFKGRTDLINYAMEKGIPIKVSKKRPYSEDENLMHISHEAGKLEDPAHIPDEDVFTWTVSPKDAPDEETLLEIHFENGIPVKVVNLKDGTEKTDPLELFEYLNEVGAKNGVGRLDMVENRFIGIKSRGVYETPGATILWIAHRDLEGITMDKEVMHLRDMLAPKFAELIYNGFWFSPEMEFLLAAFRKAQENVTGKVTVSIYKGNVMPVARYSPYSLYNPELSSMDVEGGFDATDSKGFINIHALRLKVHQLVKKGYQR | not failed |
| MVKRANTFAMRPLTADDEQVLRDLLDASAALWNEINYQRLMRYNDKDGFEDEDVWDADTGALEGKYKAVLGASTAQTVRRANTEAWRSFFRLKKQFHDESNTSVTEHPEPPGFRGNKDDGRVLKGVVRKDAYSVEWGDRSRLEMVVGEQLRDRHNSPKSRLRLEIVGDPNWSDYEDQGRLELWYDETDCTFRASQPVTVSDDARATPLANEKAALDIGANNLVACTTTTGQQYLYEGRELFQRFRETTREIARLQSKLPEGRYSSKRIRRLYRKRTRRRDHAQETLCRDLLEQLYGEGVDTVYIGGLTDVLETHWSAETNAKTHNFWAFKQFTERLAWTADEYGISVEVRSEAWTSQECPQCGSTDRTTRQQDTLTCPCGFEGHADVTASETFLERHTEKAVRPMARPVRFEWDDHEWSESPRSPARESPKEQRTDPSTVPRDGNVVSGDSLEHHHHHH | failed |
| MASKMDTETHYSDVWVVIPAFNEAAVIGKVVTDVRSVFDHVVCVDDGSTDGTGDIARRSGAHLVRHPINLGQGAAIQTGIEYARKQPGAQVFATFDGDGQHRVKDVAAMVDRLGAGDVDVVIGTRFGRPVGKASASRPPLMKRIVLQTGARLSRRGRRLGLTDTNNGLRVFNKTVADGLNITMSGMSHATEFIMLIAENHWRVAEEPVEVLYTEYSKSKGQPLLNGVNIIFDGFLRGRMPR | failed |
